# Test results as given in patent US20180355043A1.
# B1: DR4B4 (antibody, V domains shown)
# VH: QVQLKESGPGLVAPSQSLSITCTISGFSLTSYGVHWVRQPPGKGLEWLVVIWSDGSTTYNSALKSRLSISKDNSKSQVFLKMNSLQTDDTAIYYCASHYGSTLAFASWGHGTLVTVSA
# VL: DIQMTQSPASLSASVGETVTIICRASVNIYSYLAWYQQKQGKSPQLLVYNAKILAEGVPSRFSGSGSGTQFSLKINSLQPEDFGSYYCQHHYGPFTFGSGTKLEIK
# Tests used:
# [1] = target: DR4G99: Human HLA-DRA1*01:02/DRB1*01:01 ECD with collagen peptide CII_1236-1249 (human); assay: MSD ECL; antigen coated; mAb 0.2 µg/ml
# [2] = target: DR4G99: Human HLA-DRA1*01:02/DRB1*01:01 ECD with collagen peptide CII_1236-1249 (human); assay: MSD ECL; antigen coated; protocol of Example 3
binder,measurement,setting,value
B1,ECL signal,[1],15500 ECL
same,ECL signal,[2],697 ECL
